B1: CPEB3 Ribozyme (parent)
chain: GGGGGCCACAGCAGAAGCGUUCACGUCGCGGCCCCUGUCAGAUUCUGGUGAAUCUGCGAAUUCUGCUGU

Variants of: B1
Test: self-cleavage, relative activity (ratio to wild type); higher = more cleavage; co-transcriptional

Variant	self-cleavage
U43C G47U	0.98
C45G C54A	0.579
U43C U61C	0.511
U43C U61A	0.764
U43C U61G	0.562
C45G G68U	0.979
U44G U64A	0.662
U46C A59C	0.744
A42G U61C	0.521
A42G U61A	0.693
A42U U44C	0.913
A42U U44G	0.859
A42U U46A	1.03
A42U U46G	1.01
C45G G47C	1
C45G G47U	1.04
C45G A52G	0.989
C45G A52U	0.998
C45U C57U	0.317
C45A U55C	0.516
C45U G47C	0.998
U46A U67A	0.972
U44G C57A	0.327
U44G C57G	0.335

Variant	self-cleavage
U44G C57U	0.23
C45G G56U	0.722
C45G G56C	0.469
U46A G68U	0.988
U43C A51U	0.944
U43C A51G	0.964
U44C G56A	0.7
U46C C54U	0.975
U43C C57U	0.394
U43G U62C	0.437
U43G U62A	0.529
C45A G48A	1.02
U43A G58C	0.901
U46A A60U	0.556
U43G C45U	1.02
C45U U62G	0.847
C45U U62C	0.895
U46A U53A	0.989
U46A U53G	0.931
U46A U53C	0.971
U43A U67G	0.889
U43A C66G	0.572
C45A G65A	0.814
C45G G65C	0.62

Variant	self-cleavage
C45A G58U	0.988
U43A U55G	0.283
U43A U55C	0.289
U44A U62A	0.838
U44C A60C	0.378
U44A G50A	0.962
A42G C57G	0.276
A42G C57A	0.306
A42G U62A	0.733
A42G U62G	0.709
U43C C45A	0.961
U43C C45G	0.964
U43C G68A	1.03
U43C G68C	1.01
A42G C54A	0.708
A42G C54G	0.71
U43G U53C	0.874
C45G C66U	0.961
C45G C66A	0.767
U43G U69A	0.954
U43G U69C	1.03
U44C U55G	0.372
A42U A51G	0.933
A42U G48U	0.99

Variant	self-cleavage
U44A A60G	0.725
C45U C66U	0.984
U44C G65A	0.519
U44C G65U	0.488
U46C C66U	0.959
U46A G56U	0.941
U46A G56C	0.858
U43A C63U	0.86
U44A G48C	1.01
U44A G48U	0.982
U43G C63A	0.436
U43G C63U	0.751
U43A A52G	1
U43A A52C	0.991
A42G G56U	0.567
C45U U53G	0.9
C45U U53A	0.936
C45U U46C	0.975
C45U U46G	0.952
C45U U46A	0.999
U44A C63U	0.985
U44A C63G	0.645
A42G G68U	1.01
A42G G68A	0.98

Variant	self-cleavage
A42G G68C	0.963
U44G U49A	0.935
U44G U49C	0.901
U44A C45A	0.886
U46A C57A	0.434
C45A A52G	0.97
C45A A52C	0.908
U44A A52C	0.912
U44A A52G	0.988
A42U G68U	0.99
A42U G68C	0.964
U43G G58A	0.881
U43G U61G	0.265
U43G U61A	0.701
C45G U62A	0.939
U44C C63A	0.542
U46A U62A	0.937
U44A A51C	0.939
U44A A51G	0.936
C45U G68A	1.02
U44G G50A	1
A42G C45G	0.92
U44G U62A	0.908
U44G U62G	0.777

Variant	self-cleavage
U44A C54U	0.923
U46A U49C	0.666
U46A U49G	0.922
A42C U61G	0.518
C45U G56A	0.943
U46A A51G	0.946
U46C A51C	0.99
U43A C45G	0.868
A42U C66G	0.682
U43G G48U	1.01
C45G U67G	1.01
U43G G65A	0.453
U43A C54U	0.771
U43A G48C	0.912
U43A U53C	0.795
U43A U53A	0.946
A42U U61C	0.435
C45U U69G	1.05
A42G U44G	0.904
C45G U69G	1.05
U43G G56U	0.385
U44G U61A	0.808
C45U G58U	1.01
C45U G58C	1.01

Variant	self-cleavage
C45U G58A	0.972
U44G U53G	0.755
A42U U49A	0.958
C45A C54A	0.603
A42C U67G	0.919
C45U G50U	0.991
C45A C57U	0.374
C45A C57A	0.359
C45G C63G	0.798
C45G C63A	0.732
A42C U53G	1.04
A42C U53C	0.939
C45G G50U	0.961
A42G G58U	0.978
U43A A51C	0.933
U43G C66G	0.484
C45A U61C	0.697
U43A U61A	0.651
U43A U61G	0.485
C45A C63G	0.813
C45A C63U	1.02
U44C G47C	0.963
A42U U64C	0.609
C45U C54U	1.01

Variant	self-cleavage
C45U C54G	0.785
U44G G56A	0.822
U44G G56C	0.44
A42U G47A	0.957
U44A U55G	0.551
A42C U49C	0.892
U43G G50C	0.864
U43C A52G	0.965
U44G C45U	0.945
U44G C45G	0.855
C45A U49G	1.01
C45A U49A	0.997
U43A U64G	0.578
A42C U64C	0.637
A42U C54U	0.81
U44C U67C	0.937
U43A A59U	0.579
U43A A59G	0.782
U43A A59C	0.573
U43G U55C	0.312
U43A U62C	0.668
C45A G47A	0.999
C45A G47C	0.995
C45A G47U	0.986

Variant	self-cleavage
U44C U46G	0.98
U43C G48A	1.02
U44C C45G	1
C45U C63U	1
C45U C63G	0.816
C45A G56A	0.848
C45A C66U	0.919
C45A C66A	0.744
U43G G47A	0.95
U43G G47U	0.999
U46C	0.986
U46A	1
U44A C66A	0.758
U44C G50A	0.939
U44A U64C	0.76
U46C A60G	0.88
A42U G58U	0.965
U43G C57G	0.308
U43G C57U	0.385
U46A G47C	1.04
C45A A51U	0.931
A42U U55C	0.522
U43G U44G	0.83
C45U A59C	0.72

Variant	self-cleavage
U46A U69G	1.03
U43G C54U	0.662
A42G A52G	0.825
U44A G58U	0.951
U44A G58A	0.963
C45A A59G	0.971
A42U C45U	0.997
A42U C45G	0.89
A42U C45A	0.889
C45U U49G	1.01
C45U U49C	0.986
C45U U61G	0.897
A42U U67C	0.947
U43C U49A	0.988
U43C U49G	0.949
U46A G50U	0.977
U46A U64C	0.98
A42G U53C	0.891
A42U C63G	0.533
A42U C63A	0.608
C45A U53G	0.863
C45A U53C	0.804
A42C U46C	0.895
U43A G68A	0.933

Variant	self-cleavage
C45G U64A	0.908
A42G U69A	1.01
C45U G65A	0.929
A42G A60C	0.405
A42G A60U	0.329
U44G A59C	0.629
U43C U69G	1.03
U43C U69C	1.07
A42U G56C	0.326
U44G C54A	0.596
U46A G65A	0.954
U46A G65C	0.601
U44G C63G	0.588
A42U G50A	0.949
A42G G48A	0.979
U43A U69C	1.04
U43C U53C	0.855
U43C U53G	0.978
C45G U53A	0.921
U43A A60C	0.281
A42U U43C	0.77
A42U U43G	0.735
U43C G56U	0.638
C45A A60C	0.476

Variant	self-cleavage
C45A A60U	0.424
C45A A60G	0.862
A42G G47C	0.941
U46C G47U	1.02
A42G U64G	0.693
A42G U64C	0.678
A42G U64A	0.602
C45U A51G	1.01
U43C G58C	0.936
A42G U55G	0.335
U43A C57G	0.357
A42U U69G	1.01
C45A G50C	0.931
C45A G50U	1.04
U43C C54A	0.734
U43C G50C	0.915
U43C G50U	0.99
U44C U61G	0.49
U44C U61A	0.801
U44A U49C	0.922
U44G C66A	0.733
C45G U49A	0.987
U46A U55G	0.916
A42G A51G	0.894

Variant	self-cleavage
U46C C57U	0.279
U46C C57G	0.361
U43G G68C	0.902
A42G G50C	0.789
A42G G50A	0.88
U46C A52U	0.974
C45U U64A	0.88
C45U U64C	0.905
U46A C54U	0.973
U44C G68U	0.987
U43C C66A	0.614
U43C U55G	0.388
U46A C63A	0.908
U46A C63G	0.838
U43G U64G	0.649
U44A U46G	0.981
U44A U46C	0.993
U44C U64C	0.565
A42G U46C	0.965
A42U U53C	0.935
U46A U61A	0.982
U43C C63U	0.914
U44A U61G	0.645
U43C U62G	0.783

Variant	self-cleavage
A42U A59C	0.546
A42U A59U	0.677
U46A A59U	0.842
U46A A52G	1.03
U46A A52U	0.981
U44A G47A	1.01
U44A G47U	1
U44A G56U	0.677
U43C G65A	0.732
U43C G65U	0.568
U44G U55G	0.574
U44G U55A	0.432
U44C U62A	0.728
U43C U44G	0.904
A42U C57G	0.298
A42U C57A	0.379
C45U U67G	1.02
C45U U67A	1.01
U44G A52C	0.976
U44G G48U	0.986
U44G G48A	0.963
U43G U46A	0.959

From the RNAGym collection of RNA variant scans (doi:10.7554/elife.80360)
